These results are taken from patent US20200199241A1 (Chugai, published 2020).

Substitutions are numbered along the chain they refer to. Names may count otherwise.

This test addresses T1, human FcRn (soluble human FcRn complexed with β2-microglobulin) (human, UniProt P61769 21-119, limits assumed).
T1 construct: also called hFcRn
As to the kind of experiment: SPR, pH 7.0.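 Further: antibodies captured on a Protein L sensor chip with human FcRn injected as analyte, KD calculated from fitted association and dissociation rate constants.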

T1 sequence (chain, as listed by the source limits assumed, chain 1 of 2): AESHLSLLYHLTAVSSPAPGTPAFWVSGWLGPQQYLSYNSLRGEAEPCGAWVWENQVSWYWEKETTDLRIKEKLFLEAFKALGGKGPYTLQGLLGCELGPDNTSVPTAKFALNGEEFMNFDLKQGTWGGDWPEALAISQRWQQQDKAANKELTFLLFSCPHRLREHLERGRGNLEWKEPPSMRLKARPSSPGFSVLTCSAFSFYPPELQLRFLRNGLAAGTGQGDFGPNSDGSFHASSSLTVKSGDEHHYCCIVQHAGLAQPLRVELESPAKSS
T1 sequence (P61769 21-119 limits assumed, chain 2 of 2): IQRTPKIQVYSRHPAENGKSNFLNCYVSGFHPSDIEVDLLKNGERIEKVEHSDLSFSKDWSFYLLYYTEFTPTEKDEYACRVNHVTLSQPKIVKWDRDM
Description: A kinetic analysis of binding between human FcRn and the aforementioned antibodies was carried out using the BIACORE™ T100 or T200 surface plasmon resonance system (GE Healthcare). The antibodies being tested were captured on the CM4 Sensor Chip (GE Healthcare) on which a suitable amount of Protein L (ACTIGEN® protein (Alltech)) was suitably immobilized by amine coupling. Next, diluted human FcRn and a running buffer used as a blank were injected to allow the human FcRn to interact with the antibody captured on the sensor chip. A buffer consisting of 50 mmol/L sodium phosphate, 150 mmol/L NaCl and 0.05% (w/v) polysorbate 20 (Tween 20®) (pH 7.0 or pH 7.4) was used for the running buffer, and each buffer was also used to dilute the human FcRn. 10 mmol/L glycine-HCl (pH 1.5) was used to regenerate the sensor chip. All measurements of binding were carried out at 25° C. The KD(M) of each antibody to human FcRn was calculated based on kinetics parameters, i.e., the association rate constant ka (1/Ms) and the dissociation rate constant kd (1/s) calculated from a sensorgram obtained by the measurement. The BIACORE™ T100 or T200 Evaluation Software (GE Healthcare) was used to calculate each parameter.

B1: IgG1-F81 (antibody)
heavy: QVQLQESGPGLVKPSETLSLTCAVSGHSISHDHAWSWVRQPPGEGLEWIGFISYSGITNYNPSLQGRVTISRDNSKNTLYLQMNSLRAEDTAVYYCARSLARTTAMDYWGEGTLVTVSSASTKGPSVFPLAPSSKSTSGGTAALGCLVKDYFPEPVTVSWNSGALTSGVHTFPAVLQSSGLYSLSSVVTVPSSSLGTQTYICNVNHKPSNTKVDKKVEPKSCDKTHTCPPCPAPELLGGPSVFLFPPKPKDTLYISREPEVTCVVVDVSHEDPEVKFNWYVDGVEVHNAKTKPREEQYNSTYRVVSVLTVLHQDWLNGKEYKCKVSNKALPAPIEKTISKAKGQPREPQVYTLPPSRDELTKNQVSLTCLVKGFYPSDIAVEWESNGQPENNYKTTPPVLDSDGSFFLYSKLTVDKSRWQQGNVFSCSVMHEALHAHYTQKSLSLSP
light: not shown
notes: EU numbering; copies: 2 + 2
For the molecule B1, the Kd was determined as 1600 nM.

B2: IgG1-F123 (antibody)
heavy: B1 heavy with V310P, A436Y
light: not shown
notes: EU numbering; copies: 2 + 2
B2 gave a Kd of 30 nM.

B3: IgG1-F145 (antibody)
heavy: B1 heavy with E258T, V310F, A436Y
light: not shown
notes: EU numbering; copies: 2 + 2
In turn, B3 had a Kd of 53 nM.

B4: IgG1-F129 (antibody)
heavy: B1 heavy with Y254M, E258T, P259A, M430L, A436Y
light: not shown
notes: EU numbering; copies: 2 + 2
For B4, the dissociation constant Kd came to 220 nM.

B5: IgG1-F90 (antibody)
heavy: B1 heavy with V310P, A436W
light: not shown
notes: EU numbering; copies: 2 + 2
For the molecule B5, binding was characterised by a dissociation constant (Kd) of 19 nM.

B6: IgG1-F142 (antibody)
heavy: B1 heavy with E258T, D272F, V310P, A436Y
light: not shown
notes: EU numbering; copies: 2 + 2
The molecule B6 showed a Kd of 37 nM.

B7: IgG1-F159 (antibody)
heavy: B1 heavy with Y254M, E258T, P259V, V310P, M430L, A436Y
light: not shown
notes: EU numbering; copies: 2 + 2
B7 showed a Kd of 44 nM.

B8: IgG1-F149 (antibody)
heavy: B1 heavy with E258T, V310L, A436Y
light: not shown
notes: EU numbering; copies: 2 + 2
In turn, B8 showed an equilibrium dissociation constant (Kd) of 190 nM.

B9: IgG1-F140 (antibody)
heavy: B1 heavy with S241K, E258T, V310P, A436Y
light: not shown
notes: copies: 2 + 2
Take B9: the Kd came out at 36 nM.

B10: IgG1-F143 (antibody)
heavy: B1 heavy with E258T, V310A, A436Y
light: not shown
notes: EU numbering; copies: 2 + 2
B10 gave a Kd of 200 nM.

B11: IgG1-F114 (antibody)
heavy: B1 heavy with E258T, V310P, S426A, A436Y
light: not shown
notes: EU numbering; copies: 2 + 2
Molecule B11 gave a Kd of 38 nM.

B12: IgG1-F154 (antibody)
heavy: B1 heavy with E258T, V310T, A436Y
light: not shown
notes: EU numbering; copies: 2 + 2
In the case of B12, the Kd worked out at 180 nM.

B13: IgG1-F139 (antibody)
heavy: B1 heavy with Y254W, E258T, V310P, A436W
light: not shown
notes: EU numbering; copies: 2 + 2
In the case of B13, the affinity, expressed as Kd, was 15 nM.

B14: IgG1-F87 (antibody)
heavy: B1 heavy with Y254M, S256T, E258Q, A436Y
light: not shown
notes: EU numbering; copies: 2 + 2
The molecule B14 gave a Kd of 4300 nM.

B15: IgG1-F94 (antibody)
heavy: B1 heavy with Y254M, E258T, P259L, M430L, A436Y
light: not shown
notes: copies: 2 + 2
B15 registered a Kd of 370 nM.

B16: IgG1-F88 (antibody)
heavy: B1 heavy with S256T, E258Q, A436W
light: not shown
notes: EU numbering; copies: 2 + 2
B16 returned a Kd of 190 nM.

B17: IgG1-F86 (antibody)
heavy: B1 heavy with Y254M, S256T, E258Q, A436W
light: not shown
notes: EU numbering; copies: 2 + 2
With B17, the dissociation constant Kd is 1500 nM.

B18: IgG1-F99 (antibody)
heavy: B1 heavy with A436H
light: not shown
notes: EU numbering; copies: 2 + 2
In turn, B18 showed a Kd of 620 nM.

B19: IgG1-F107 (antibody)
heavy: B1 heavy with E258T, V310P, D378A, A436Y
light: not shown
notes: EU numbering; copies: 2 + 2
With B19, the Kd amounted to 34 nM.

B20: IgG1-F95 (antibody)
heavy: B1 heavy with S256T, M430L, A436F
light: not shown
notes: EU numbering; copies: 2 + 2
Consider B20, for which the affinity, expressed as Kd, was 260 nM.

B21: IgG1-F124 (antibody)
heavy: B1 heavy with M430L, A436Y
light: not shown
notes: EU numbering; copies: 2 + 2
The molecule B21 gave a Kd of 290 nM.

B22: IgG1-F125 (antibody)
heavy: B1 heavy with S256T, V310P, M430L, A436Y
light: not shown
notes: EU numbering; copies: 2 + 2
As to B22, the Kd was 24 nM.

B23: IgG1-F134 (antibody)
heavy: B1 heavy with Y254M, E258T, P259N, M430L, A436Y
light: not shown
notes: EU numbering; copies: 2 + 2
Regarding B23, binding was characterised by a dissociation constant (Kd) of 270 nM.

B24: IgG1-F108 (antibody)
heavy: B1 heavy with E258T, V307A, V310P, A436Y
light: not shown
notes: EU numbering; copies: 2 + 2
The molecule B24 showed a Kd of 41 nM.

B25: IgG1-F132 (antibody)
heavy: B1 heavy with Y254M, E258T, P259I, M430L, A436Y
light: not shown
notes: EU numbering; copies: 2 + 2
Molecule B25 came in with a Kd of 210 nM.

B26: IgG1-F120 (antibody)
heavy: B1 heavy with Y254M, E258T, P259L, V310P, M430L, A436Y
light: not shown
notes: EU numbering; copies: 2 + 2
With B26, binding was put at a Kd of 63 nM.

B27: IgG1-F121 (antibody)
heavy: B1 heavy with V310P, M430L, A436W
light: not shown
notes: EU numbering; copies: 2 + 2
As to B27, binding was characterised by a dissociation constant (Kd) of 15 nM.

B28: IgG1-F103 (antibody)
heavy: B1 heavy with P240A, E258T, V310P, A436Y
light: not shown
notes: EU numbering; copies: 2 + 2
The molecule B28 yielded a Kd of 44 nM.

B29: IgG1-F104 (antibody)
heavy: B1 heavy with E258T, D267A, V310P, A436Y
light: not shown
notes: EU numbering; copies: 2 + 2
B29 displayed a dissociation constant (Kd) of 37 nM.

B30: IgG1-F101 (antibody)
heavy: B1 heavy with Y254W, E258Q, P259L, A436Y
light: not shown
notes: EU numbering; copies: 2 + 2
Molecule B30 showed a Kd of 110 nM.

B31: IgG1-F152 (antibody)
heavy: B1 heavy with E258T, V310Q, A436Y
light: not shown
notes: EU numbering; copies: 2 + 2
For the molecule B31, the Kd amounted to 270 nM.

B32: IgG1-F105 (antibody)
heavy: B1 heavy with E258T, T309A, V310P, A436Y
light: not shown
notes: EU numbering; copies: 2 + 2
In the case of B32, binding was put at a Kd of 75 nM.

B33: IgG1-F158 (antibody)
heavy: B1 heavy with Y254M, E258T, P259T, V310P, M430L, A436Y
light: not shown
notes: EU numbering; copies: 2 + 2
For the molecule B33, the affinity, expressed as Kd, was 59 nM.

B34: IgG1-F130 (antibody)
heavy: B1 heavy with E258T, V310M, A436Y
light: not shown
notes: EU numbering; label printed 'F130' between F149 and F152 (perhaps F150); copies: 2 + 2
Molecule B34 had a Kd of 200 nM.

B35: IgG1-F157 (antibody)
heavy: B1 heavy with Y254M, E258T, P259A, V310P, M430L, A436Y
light: not shown
notes: copies: 2 + 2
In turn, B35 gave a Kd of 150 nM.

B36: IgG1-F147 (antibody)
heavy: B1 heavy with E258T, V310I, A436Y
light: not shown
notes: EU numbering; copies: 2 + 2
As to B36, binding was put at a Kd of 240 nM.

B37: IgG1-F111 (antibody)
heavy: B1 heavy with E258T, V310P, K319A, A436Y
light: not shown
notes: EU numbering; copies: 2 + 2
B37: binding was characterised by a dissociation constant (Kd) of 32 nM.

B38: IgG1-F84 (antibody)
heavy: B1 heavy with Y254W, E258Q, A436W
light: not shown
notes: EU numbering; copies: 2 + 2
In turn, B38 showed an equilibrium dissociation constant (Kd) of 280 nM.

B39: IgG1-F133 (antibody)
heavy: B1 heavy with Y254M, E258T, P259M, M430L, A436Y
light: not shown
notes: EU numbering; copies: 2 + 2
Molecule B39 came in with a dissociation constant (Kd) of 410 nM.

B40: IgG1-F89 (antibody)
heavy: B1 heavy with S256T, E258Q, A436Y
light: not shown
notes: EU numbering; copies: 2 + 2
As to B40, the Kd was 360 nM.

B41: IgG1-F131 (antibody)
heavy: B1 heavy with Y254M, E258T, P259G, M430L, A436Y
light: not shown
notes: EU numbering; copies: 2 + 2
Take B41: binding was put at a Kd of 3000 nM.

B42: IgG1-F92 (antibody)
heavy: B1 heavy with S256T, V310P, M430L, A436W
light: not shown
notes: EU numbering; copies: 2 + 2
In the case of B42, the Kd was found to be 11 nM.

B43: IgG1-F135 (antibody)
heavy: B1 heavy with Y254M, E258T, P259S, M430L, A436Y
light: not shown
notes: EU numbering; copies: 2 + 2
On to B43, for which the dissociation constant (Kd) came out at 750 nM.

B44: IgG1-F128 (antibody)
heavy: B1 heavy with Y254M, E258T, P259L, M430L, A436W
light: not shown
notes: EU numbering; copies: 2 + 2
For B44, binding was characterised by a dissociation constant (Kd) of 170 nM.

B45: IgG1-F137 (antibody)
heavy: B1 heavy with Y254M, E258T, P259V, M430L, A436Y
light: not shown
notes: EU numbering; copies: 2 + 2
Molecule B45 registered a Kd of 460 nM.

B46: IgG1-F109 (antibody)
heavy: B1 heavy with E258T, V310P, Q313A, A436Y
light: not shown
notes: EU numbering; 'M4252Y' read as M252Y; copies: 2 + 2
Consider B46, for which the Kd came out at 32 nM.

B47: IgG1-F112 (antibody)
heavy: B1 heavy with E258T, V310P, E382A, A436Y
light: not shown
notes: EU numbering; copies: 2 + 2
In turn, B47 showed a dissociation constant (Kd) of 64 nM.

B48: IgG1-F85 (antibody)
heavy: B1 heavy with Y254W, E258Q, A436Y
light: not shown
notes: EU numbering; copies: 2 + 2
In turn, B48 came in with an equilibrium dissociation constant (Kd) of 550 nM.

B49: IgG1-F141 (antibody)
heavy: B1 heavy with E258T, S300G, V310P, A436Y
light: not shown
notes: EU numbering; copies: 2 + 2
B49 returned a Kd of 35 nM.

B50: IgG1-F106 (antibody)
heavy: B1 heavy with E258T, V305A, V310P, A436Y
light: not shown
notes: EU numbering; copies: 2 + 2
In turn, B50 displayed a Kd of 37 nM.

B51: IgG1-F122 (antibody)
heavy: B1 heavy with M430L, A436W
light: not shown
notes: EU numbering; copies: 2 + 2
In turn, B51 had a Kd of 120 nM.

B52: IgG1-F91 (antibody)
heavy: B1 heavy with E258T, V310P, M430L, A436Y
light: not shown
notes: EU numbering; copies: 2 + 2
As to B52, the affinity, expressed as Kd, was 48 nM.

B53: IgG1-F93 (antibody)
heavy: B1 heavy with Y254W, E258T, M430L, A436W
light: not shown
notes: copies: 2 + 2
Consider B53, for which the Kd was 740 nM.

B54: IgG1-F136 (antibody)
heavy: B1 heavy with Y254M, E258T, P259T, M430L, A436Y
light: not shown
notes: EU numbering; copies: 2 + 2
On to B54, for which the Kd was found to be 380 nM.

B55: IgG1-F113 (antibody)
heavy: B1 heavy with E258T, V310P, E384A, A436Y
light: not shown
notes: EU numbering; copies: 2 + 2
As to B55, the Kd was determined as 32 nM.
